Consider two substances from publication PMC7221075.

Test [1] has as its target TMH-LOV2 V416L membrane anchor (Escherichia coli | Avena sativa).
Test [2] has the same target. This is another data set of the same source.
For test [3], the target named is TMH-iLID membrane anchor (transmembrane helix of E. coli TatA, Val-Leu, Flag peptide, iLID) (Escherichia coli).

Zdk1-SctQ bait fusion protein: in test [1], the light/dark secretion ratio (L/D ratio) of native T3SS substrates, in vitro secretion assay, LITESEC-act2 (anchor from pBAD) came out at 2.16 and the light/dark secretion ratio (L/D ratio) of native T3SS substrates, in vitro secretion assay, LITESEC-act3 (anchor from pACYC184) was 4.18. The substance further registered a secretion efficiency of heterologous cargo expressed from plasmid (YopE1-53-NanoLuc-FLAG), LITESEC-act3, in light in test [2] of 50%.
Take SspB_Nano-SctQ bait fusion protein: the light/dark secretion ratio (L/D ratio) of native T3SS substrates, in vitro secretion assay, LITESEC-supp2 (anchor from pACYC184) in test [3] was 0.26.
